Results as given in patent US20180296691A1 (Pfizer, published 2018).

Legend:
Experiment in all cases: SPR (BIAcore 2000), Eph receptor captured via anti-human antibody capture kit, monomeric human Ephrin-A4 12-400 nM as analyte, steady state affinity fit
[1] = molecular target: T1, recombinant EphA3 receptor (commercially available) (UniProt P29320 21-541, limits assumed)
T1 sequence (looked up): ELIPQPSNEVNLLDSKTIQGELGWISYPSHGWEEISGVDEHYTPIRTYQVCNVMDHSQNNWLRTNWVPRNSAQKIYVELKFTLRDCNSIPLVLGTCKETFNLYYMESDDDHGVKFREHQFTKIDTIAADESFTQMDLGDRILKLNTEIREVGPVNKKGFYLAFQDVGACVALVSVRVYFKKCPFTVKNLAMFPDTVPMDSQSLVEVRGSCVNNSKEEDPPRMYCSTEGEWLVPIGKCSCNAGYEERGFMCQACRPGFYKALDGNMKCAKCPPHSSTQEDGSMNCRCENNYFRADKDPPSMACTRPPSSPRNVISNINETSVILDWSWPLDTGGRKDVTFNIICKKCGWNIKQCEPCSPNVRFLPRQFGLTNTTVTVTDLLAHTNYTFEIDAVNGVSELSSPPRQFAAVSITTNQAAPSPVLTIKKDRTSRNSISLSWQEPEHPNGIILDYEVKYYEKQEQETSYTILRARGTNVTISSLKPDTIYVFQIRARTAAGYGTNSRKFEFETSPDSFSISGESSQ
Procedure: (§1) An anti-human antibody capture kit was used to immobilize recombinant Eph receptors on a CM5 biosensor chip. Prior to each antigen injection cycle, Eph receptors at the concentration of 2 μg/mL were captured on the surface with a contact time of 2 minutes and a flow rate of 5 μL/min. The captured antibody loading from baseline was constant at 150-260 response units. […] Following each cycle, the anti-human capture surface was regenerated with 30 seconds contact time of 3M MgCl₂ at 10 μL/min.
(§2) Biacore data was processed by initially calculating an average of the response at equilibrium (Req). The Req was then plotted versus concentration (M) and the steady state affinity fit was used to calculate the affinity and theoretical Rmax. In all cases, at least 5 different analyte concentrations were used to make this calculation. All data analysis steps were completed in BiaEvaluation Software 3.1 (GE Healthcare).

[2] = molecular target: T2, recombinant EphB2 receptor (commercially available) (UniProt P29323 19-543, limits assumed)
T2 sequence (looked up): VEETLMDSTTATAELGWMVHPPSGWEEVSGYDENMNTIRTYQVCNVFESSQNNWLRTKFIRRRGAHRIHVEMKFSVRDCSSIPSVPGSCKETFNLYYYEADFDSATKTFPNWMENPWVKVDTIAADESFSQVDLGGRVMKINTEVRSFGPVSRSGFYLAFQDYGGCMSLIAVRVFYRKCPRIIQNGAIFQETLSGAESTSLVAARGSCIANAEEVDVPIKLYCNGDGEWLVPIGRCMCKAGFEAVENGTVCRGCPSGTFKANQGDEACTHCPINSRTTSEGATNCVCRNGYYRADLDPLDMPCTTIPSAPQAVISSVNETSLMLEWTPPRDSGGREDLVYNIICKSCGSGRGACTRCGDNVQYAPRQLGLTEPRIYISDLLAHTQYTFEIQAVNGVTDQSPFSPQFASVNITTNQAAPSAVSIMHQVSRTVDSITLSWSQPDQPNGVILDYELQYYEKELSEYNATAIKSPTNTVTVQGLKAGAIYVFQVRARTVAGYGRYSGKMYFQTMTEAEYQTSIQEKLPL
Procedure: as §1, §2

[3] = molecular target: recombinant EphA4 receptor (commercially available) (UniProt P54764 20-547, limits assumed)
Procedure: as §1, §2

[4] = molecular target: T3, recombinant EphA10 receptor (commercially available) (UniProt Q5JZY3 34-565, limits assumed)
T3 sequence (looked up): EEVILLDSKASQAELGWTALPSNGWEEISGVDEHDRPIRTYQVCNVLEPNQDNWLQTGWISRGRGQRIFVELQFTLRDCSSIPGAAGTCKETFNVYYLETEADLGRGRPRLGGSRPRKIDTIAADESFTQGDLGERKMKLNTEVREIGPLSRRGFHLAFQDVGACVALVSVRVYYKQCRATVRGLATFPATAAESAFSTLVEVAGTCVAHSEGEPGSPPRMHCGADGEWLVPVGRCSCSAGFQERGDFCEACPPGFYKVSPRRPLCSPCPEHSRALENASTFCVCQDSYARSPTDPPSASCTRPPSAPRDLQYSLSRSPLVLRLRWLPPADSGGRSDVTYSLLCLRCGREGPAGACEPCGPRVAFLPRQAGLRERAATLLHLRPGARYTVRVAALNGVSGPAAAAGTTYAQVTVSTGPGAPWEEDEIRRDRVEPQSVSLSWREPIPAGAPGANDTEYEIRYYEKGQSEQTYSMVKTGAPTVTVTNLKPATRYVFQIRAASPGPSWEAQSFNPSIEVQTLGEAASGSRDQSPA
Procedure: as §1, §2

[5] = molecular target: T4, recombinant EphA6 receptor (commercially available) (UniProt Q9UF33 23-550, limits assumed)
T4 sequence (looked up): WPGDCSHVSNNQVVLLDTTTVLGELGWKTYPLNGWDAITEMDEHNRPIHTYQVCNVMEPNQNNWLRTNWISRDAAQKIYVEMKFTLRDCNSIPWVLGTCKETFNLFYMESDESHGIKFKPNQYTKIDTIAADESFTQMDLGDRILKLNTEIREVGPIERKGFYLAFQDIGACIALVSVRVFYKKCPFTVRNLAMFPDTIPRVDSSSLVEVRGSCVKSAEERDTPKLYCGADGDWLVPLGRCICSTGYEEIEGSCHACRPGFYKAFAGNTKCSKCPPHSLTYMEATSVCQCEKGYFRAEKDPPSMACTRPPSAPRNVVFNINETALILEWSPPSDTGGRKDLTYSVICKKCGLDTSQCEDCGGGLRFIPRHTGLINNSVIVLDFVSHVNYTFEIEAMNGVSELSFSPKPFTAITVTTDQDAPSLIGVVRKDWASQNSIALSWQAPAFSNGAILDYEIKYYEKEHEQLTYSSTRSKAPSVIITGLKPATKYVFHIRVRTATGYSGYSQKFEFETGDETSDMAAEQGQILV
Procedure: as §1, §2

[6] = molecular target: recombinant EphA2 receptor (commercially available) (UniProt P29317 25-534, limits assumed)
Procedure: as §1, §2

[7] = molecular target: T5, recombinant EphA7 receptor (commercially available) (UniProt Q15375 28-555, limits assumed)
T5 sequence (looked up): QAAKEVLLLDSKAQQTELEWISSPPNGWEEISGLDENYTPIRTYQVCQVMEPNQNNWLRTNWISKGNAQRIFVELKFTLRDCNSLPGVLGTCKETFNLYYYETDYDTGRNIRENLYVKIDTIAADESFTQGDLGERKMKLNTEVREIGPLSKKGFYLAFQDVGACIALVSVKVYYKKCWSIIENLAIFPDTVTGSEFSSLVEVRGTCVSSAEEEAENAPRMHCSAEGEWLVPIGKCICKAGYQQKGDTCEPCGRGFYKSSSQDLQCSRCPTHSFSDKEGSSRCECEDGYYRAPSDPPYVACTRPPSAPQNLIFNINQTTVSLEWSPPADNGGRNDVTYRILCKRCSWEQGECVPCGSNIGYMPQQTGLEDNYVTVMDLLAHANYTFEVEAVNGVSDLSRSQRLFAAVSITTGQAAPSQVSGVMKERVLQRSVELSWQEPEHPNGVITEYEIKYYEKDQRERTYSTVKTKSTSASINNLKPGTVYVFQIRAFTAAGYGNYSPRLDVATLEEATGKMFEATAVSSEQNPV
Procedure: as §1, §2

Sequence of recombinant EphA4 receptor (commercially available) (P54764 20-547 limits assumed): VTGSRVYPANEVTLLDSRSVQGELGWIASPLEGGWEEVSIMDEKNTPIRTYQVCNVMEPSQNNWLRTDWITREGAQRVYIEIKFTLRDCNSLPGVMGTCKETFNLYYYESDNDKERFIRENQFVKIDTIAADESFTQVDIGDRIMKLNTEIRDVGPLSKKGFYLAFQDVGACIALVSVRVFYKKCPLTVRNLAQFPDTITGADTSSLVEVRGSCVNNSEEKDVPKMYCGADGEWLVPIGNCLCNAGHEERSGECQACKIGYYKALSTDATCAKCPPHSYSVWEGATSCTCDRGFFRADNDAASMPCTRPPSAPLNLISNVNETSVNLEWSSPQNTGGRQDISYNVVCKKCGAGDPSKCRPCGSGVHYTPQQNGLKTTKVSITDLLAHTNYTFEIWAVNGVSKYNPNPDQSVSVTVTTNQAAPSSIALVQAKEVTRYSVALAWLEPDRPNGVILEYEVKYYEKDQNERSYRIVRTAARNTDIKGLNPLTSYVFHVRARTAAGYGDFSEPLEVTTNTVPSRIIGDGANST
Sequence of recombinant EphA2 receptor (commercially available) (P29317 25-534 limits assumed): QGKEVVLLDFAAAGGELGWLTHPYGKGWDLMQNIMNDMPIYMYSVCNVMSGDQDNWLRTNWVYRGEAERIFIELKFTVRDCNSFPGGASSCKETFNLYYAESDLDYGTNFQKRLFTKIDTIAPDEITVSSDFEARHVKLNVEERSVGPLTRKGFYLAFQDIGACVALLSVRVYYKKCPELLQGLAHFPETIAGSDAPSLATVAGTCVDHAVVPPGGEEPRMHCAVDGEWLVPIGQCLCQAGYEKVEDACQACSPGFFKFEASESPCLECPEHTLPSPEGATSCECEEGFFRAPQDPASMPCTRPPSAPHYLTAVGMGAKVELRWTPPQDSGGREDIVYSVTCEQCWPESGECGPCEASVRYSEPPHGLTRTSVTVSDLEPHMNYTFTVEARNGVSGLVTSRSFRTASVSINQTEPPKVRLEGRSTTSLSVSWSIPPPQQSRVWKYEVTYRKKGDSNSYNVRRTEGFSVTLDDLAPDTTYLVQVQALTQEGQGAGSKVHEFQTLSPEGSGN

Kd [1]: 77 nM | Kd [2]: 135 nM | Kd [3]: 122 nM | Kd [4]: 431 nM | Kd [5]: 82 nM | Kd [6]: 31 nM | Kd [7]: 86 nM
B1: monomeric human Ephrin-A4 (ligand)
chain: LRHVVYWNSSNPRLLRGDAVVELGLNDYLDIVCPHYEGPGPPEGPETFALYMVDWPGYESCQAEGPRAYKRWVCSLPFGHVQFSEKIQRFTPFSLGFEFLPGETYYYISVPTPESSGQCLRLQVSVCCKERKSESAHPVGSPGES
